In patent EP0762881B1:

Target: anti-dnaJ antibodies in sera obtained from patients with early stage RA
Assay: inhibition ELISA; rdnaJ-coated plates, sera 1:100 preincubated with the peptide, goat anti-human IgG detection

B1: wild-type dnaJ peptide … (peptide)
peptide: QKRAAYDQYGHAAFE
Question: Which inhibition of antibody binding to rdnaJ, fold against control sera does the source give for B1 here?
Answer: Its inhibition of antibody binding to rdnaJ, fold against control sera is 3 fold.
